Results taken from publication PMC9858354 (2023).

Target: T1, human C-C motif chemokine receptor-like 2 (CCRL2) isoform b, on HEK-huCCRL2 cells (human, UniProt O00421 1-344)
T1 chain: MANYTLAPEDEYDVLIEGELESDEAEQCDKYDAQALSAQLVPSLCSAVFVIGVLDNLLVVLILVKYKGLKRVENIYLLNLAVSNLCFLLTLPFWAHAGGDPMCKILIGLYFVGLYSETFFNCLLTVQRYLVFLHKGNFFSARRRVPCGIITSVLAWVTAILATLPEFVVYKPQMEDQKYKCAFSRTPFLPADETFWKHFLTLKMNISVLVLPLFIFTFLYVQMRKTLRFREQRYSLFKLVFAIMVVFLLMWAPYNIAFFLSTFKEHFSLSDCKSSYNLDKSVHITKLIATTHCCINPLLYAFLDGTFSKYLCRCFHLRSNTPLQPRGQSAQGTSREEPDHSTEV
Assay: SPR

Kd: 7.48 nM
B1: recombinant active human chemerin (residues 21-157), unlabeled (ligand)
chain: ELTEAQRRGLQVALEEFHKHPPVQWAFQETSVESAVDTPFPAGIFVRLEFKLQQTSCRKRDWKKPECKVRPNGRKRKCLACIKLGSEDKVLGRLVHCPIETQVLREAEEHQETQCLRVQRAGEDPHSFYFPGQFAFS
